Patent US20200048371A1 (Zymeworks, published 2020)
Each block holds one binder with its values, some of them ahead of it.

Assays:
Assay in all cases: homogeneous cell binding assay on transfected HEK293-6e cells as in Example 8 (data not shown)
Human HER2 = target: T1, Human HER2 (human, UniProt P04626 23-1255)
T1 construct: whole, on cells
Method: (§1) Binding of constructs to target was assessed in HEK293-6e cells transiently expressing the target of interest.
(§2) Parental cells were maintained in 250 mL Erlenmeyer flasks (Corning, 431144) at 37° C., 5% CO2 in a rotating humidified incubator at 115 rpm. HEK293-6e cells were re-suspended to 1×10⁶ cells/mL in fresh Freestyle media before transfection. […] The DNA vectors that were used to express targets of interest were pTT5 vectors with full length targets of interest including Human Dectin-1, Human DEC205, Human CD40, Human HER2, Human ROR1 and mock vector containing GFP. The cells were incubated for 24 hours at 37° C. and 5% CO2 in a rotating humidified incubator at 115 rpm.
(§3) Construct samples were prepared at starting concentrations of 40 nM final in FACS buffer or 1×PBS pH 7.4 (Gibco, 1001023)+2% FBS in Eppendorf tubes. Samples were titrated in duplicate 1:4 down to 0.04 nM directly in the 384-well black optical bottom assay plate (Thermo Fisher, 142761). HEK293-6e cells expressing target of interest were harvested and re-suspended in FACS buffer at 10,000 cells per 30 μl. To visualize cell nuclei as a focusing channel, Vybrant™ DyeCycle™ Violet nuclear stain (Life Tech, V35003) was added to cells at 2 μM final concentration. To detect binding of test construct sample to cells, Goat anti-Human IgG Fc A647 (Jackson ImmunoResearch, 115-605-071) was added to cells at 0.6 μg/mL final. The cells were vortexed briefly to mix and plated at 10,000 cells/well. The plate was incubated at room temperature for 3 hours before scanning. Data analysis was performed on the CellInsight™ with the HCS high content screening platform (Thermo Scientific), using BioApplication “CellViability” with a 10× objective. Samples were scanned on the 385 nm channel to visualize nuclear staining and channel 650 nm to assess cell binding. The mean object average fluorescence intensity of A647 was measured on channel 2 to determine binding intensity on all cell conditions.

Human CD40 = target: T2, Human CD40 (human, UniProt P25942 21-277)
T2 construct: whole, on cells
T2 sequence (P25942 21-277): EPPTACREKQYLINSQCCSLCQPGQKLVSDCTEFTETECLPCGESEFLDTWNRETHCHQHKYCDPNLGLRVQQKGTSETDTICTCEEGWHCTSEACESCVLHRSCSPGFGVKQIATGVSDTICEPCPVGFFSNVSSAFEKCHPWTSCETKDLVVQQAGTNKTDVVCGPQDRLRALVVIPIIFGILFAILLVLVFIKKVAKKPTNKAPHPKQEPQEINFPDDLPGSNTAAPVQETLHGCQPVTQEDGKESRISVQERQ
Method: as §1, §2, §3

Human DEC205 = target: T3, Human DEC205 (human, UniProt O60449 28-1722)
T3 construct: whole, on cells
T3 sequence (O60449 28-1722): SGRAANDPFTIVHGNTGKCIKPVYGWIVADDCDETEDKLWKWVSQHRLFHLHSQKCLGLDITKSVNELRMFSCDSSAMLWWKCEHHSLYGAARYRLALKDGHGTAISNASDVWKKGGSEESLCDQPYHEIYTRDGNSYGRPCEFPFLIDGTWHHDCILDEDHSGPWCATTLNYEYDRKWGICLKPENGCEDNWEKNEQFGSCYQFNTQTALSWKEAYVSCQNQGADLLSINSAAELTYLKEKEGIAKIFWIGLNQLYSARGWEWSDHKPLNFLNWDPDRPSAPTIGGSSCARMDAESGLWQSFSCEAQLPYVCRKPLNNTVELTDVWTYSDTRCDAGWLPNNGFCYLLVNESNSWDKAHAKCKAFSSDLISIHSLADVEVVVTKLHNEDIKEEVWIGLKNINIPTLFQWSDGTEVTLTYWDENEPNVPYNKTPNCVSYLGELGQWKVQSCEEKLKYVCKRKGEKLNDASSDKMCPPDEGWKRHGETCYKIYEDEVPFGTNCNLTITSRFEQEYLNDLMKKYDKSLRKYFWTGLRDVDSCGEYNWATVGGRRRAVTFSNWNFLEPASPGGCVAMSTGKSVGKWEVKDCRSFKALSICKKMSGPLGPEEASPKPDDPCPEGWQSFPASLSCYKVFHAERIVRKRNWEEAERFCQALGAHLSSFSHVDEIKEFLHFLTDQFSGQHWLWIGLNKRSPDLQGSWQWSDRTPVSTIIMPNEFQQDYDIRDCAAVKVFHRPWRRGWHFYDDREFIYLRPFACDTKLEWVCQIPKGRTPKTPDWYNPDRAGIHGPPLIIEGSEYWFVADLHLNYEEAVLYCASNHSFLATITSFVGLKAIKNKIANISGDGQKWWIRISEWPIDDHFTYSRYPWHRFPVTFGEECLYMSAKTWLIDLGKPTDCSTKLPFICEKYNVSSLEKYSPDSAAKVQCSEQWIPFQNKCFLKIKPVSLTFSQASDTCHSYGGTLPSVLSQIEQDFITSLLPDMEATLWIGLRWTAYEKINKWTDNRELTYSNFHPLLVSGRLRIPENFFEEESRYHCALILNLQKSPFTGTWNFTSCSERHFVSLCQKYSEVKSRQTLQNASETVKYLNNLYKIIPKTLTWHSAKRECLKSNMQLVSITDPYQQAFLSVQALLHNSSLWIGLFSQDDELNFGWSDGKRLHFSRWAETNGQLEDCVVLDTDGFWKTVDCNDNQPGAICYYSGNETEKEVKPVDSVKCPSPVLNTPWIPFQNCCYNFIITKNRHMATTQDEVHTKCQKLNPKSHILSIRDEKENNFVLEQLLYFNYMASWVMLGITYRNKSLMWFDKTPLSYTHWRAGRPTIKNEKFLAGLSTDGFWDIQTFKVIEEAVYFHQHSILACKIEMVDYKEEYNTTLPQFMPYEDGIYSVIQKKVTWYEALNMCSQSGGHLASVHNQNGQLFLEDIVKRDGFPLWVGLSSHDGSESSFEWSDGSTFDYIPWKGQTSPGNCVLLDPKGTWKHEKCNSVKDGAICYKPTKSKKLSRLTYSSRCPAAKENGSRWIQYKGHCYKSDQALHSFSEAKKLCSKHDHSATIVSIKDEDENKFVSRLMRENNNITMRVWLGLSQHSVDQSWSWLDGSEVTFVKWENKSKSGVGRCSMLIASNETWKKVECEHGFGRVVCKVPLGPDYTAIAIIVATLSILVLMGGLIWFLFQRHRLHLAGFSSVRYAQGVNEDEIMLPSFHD
Method: as §1, §2, §3

binding result (Human HER2): binds
binding result (Human CD40): binds
B1: construct 18532 (CD40 X HER2; 12E12, Pertuzumab; Fab x scFv) (bispecific antibody, human IgG1, kappa, L234A L235A)
heavy: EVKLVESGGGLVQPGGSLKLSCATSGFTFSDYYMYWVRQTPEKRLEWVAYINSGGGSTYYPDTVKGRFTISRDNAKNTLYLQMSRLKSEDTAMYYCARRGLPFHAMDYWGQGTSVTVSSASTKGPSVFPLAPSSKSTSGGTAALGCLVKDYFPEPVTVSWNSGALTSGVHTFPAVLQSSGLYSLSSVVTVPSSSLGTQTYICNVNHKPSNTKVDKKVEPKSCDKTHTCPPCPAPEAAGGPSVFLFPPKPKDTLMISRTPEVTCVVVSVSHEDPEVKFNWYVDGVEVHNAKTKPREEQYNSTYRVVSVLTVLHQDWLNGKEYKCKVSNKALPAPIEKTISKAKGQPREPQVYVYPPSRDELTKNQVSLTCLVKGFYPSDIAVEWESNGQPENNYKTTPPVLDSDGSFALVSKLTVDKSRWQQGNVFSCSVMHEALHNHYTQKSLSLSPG
light: DIQMTQTTSSLSASLGDRVTISCSASQGISNYLNWYQQKPDGTVKLLIYYTSILHSGVPSRFSGSGSGTDYSLTIGNLEPEDIATYYCQQFNKLPPTFGGGTKLEIKRTVAAPSVFIFPPSDEQLKSGTASVVCLLNNFYPREAKVQWKVDNALQSGNSQESVTEQDSKDSTYSLSSTLTLSKADYEKHKVYACEVTHQGLSSPVTKSFNRGEC
scFv: DIQMTQSPSSLSASVGDRVTITCKASQDVSIGVAWYQQKPGKAPKLLIYSASYRYTGVPSRFSGSGSGTDFTLTISSLQPEDFATYYCQQYYIYPATFGQGTKVEIKVEGGSGGSGGSGGSGGVDEVQLVESGGGLVQPGGSLRLSCAASGFTFADYTMDWVRQAPGKGLEWVGDVNPNSGGSIYNQRFKGRFTFSVDRSKNTLYLQMNSLRAEDTAVYYCARNLGPSFYFDYWGQGTLVTVSSAAEPKSSDKTHTCPPCPAPEAAGGPSVFLFPPKPKDTLMISRTPEVTCVVVSVSHEDPEVKFNWYVDGVEVHNAKTKPREEQYNSTYRVVSVLTVLHQDWLNGKEYKCKVSNKALPAPIEKTISKAKGQPREPQVYVLPPSRDELTKNQVSLLCLVKGFYPSDIAVEWESNGQPENNYLTWPPVLDSDGSFFLYSKLTVDKSRWQQGNVFSCSVMHEALHNHYTQKSLSLSPG
notes: also called v18532; Her2×CD40

binding result (Human DEC205): binds
binding result (Human HER2): binds
B2: construct 18529 (DEC-205 X HER2; 3G9, Pertuzumab; Fab x scFv) (bispecific antibody, human IgG1, kappa, L234A L235A)
heavy: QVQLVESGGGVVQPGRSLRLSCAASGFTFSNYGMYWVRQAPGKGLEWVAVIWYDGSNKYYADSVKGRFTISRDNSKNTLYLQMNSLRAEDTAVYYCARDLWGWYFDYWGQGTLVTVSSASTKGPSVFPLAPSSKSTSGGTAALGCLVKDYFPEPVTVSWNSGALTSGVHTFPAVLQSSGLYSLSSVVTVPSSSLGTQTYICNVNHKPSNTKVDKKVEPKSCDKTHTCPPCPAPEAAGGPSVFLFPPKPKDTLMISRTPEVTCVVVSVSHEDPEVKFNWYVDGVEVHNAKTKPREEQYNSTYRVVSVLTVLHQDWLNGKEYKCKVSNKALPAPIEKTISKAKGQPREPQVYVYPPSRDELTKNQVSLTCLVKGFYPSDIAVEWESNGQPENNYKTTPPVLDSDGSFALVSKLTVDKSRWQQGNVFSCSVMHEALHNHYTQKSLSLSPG
light: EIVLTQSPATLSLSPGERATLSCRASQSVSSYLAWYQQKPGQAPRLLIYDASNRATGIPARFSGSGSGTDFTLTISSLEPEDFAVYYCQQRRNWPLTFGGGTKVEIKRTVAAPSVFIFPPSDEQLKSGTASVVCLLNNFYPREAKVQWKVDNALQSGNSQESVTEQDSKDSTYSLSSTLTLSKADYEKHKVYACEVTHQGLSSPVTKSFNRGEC
scFv: B1 scFv
notes: Three polypeptides A, B and C; also called Her2×Dec205
